The target in one data set is T1, E47 (UniProt P15923-2 P15923-2:1-651).
T1 sequence: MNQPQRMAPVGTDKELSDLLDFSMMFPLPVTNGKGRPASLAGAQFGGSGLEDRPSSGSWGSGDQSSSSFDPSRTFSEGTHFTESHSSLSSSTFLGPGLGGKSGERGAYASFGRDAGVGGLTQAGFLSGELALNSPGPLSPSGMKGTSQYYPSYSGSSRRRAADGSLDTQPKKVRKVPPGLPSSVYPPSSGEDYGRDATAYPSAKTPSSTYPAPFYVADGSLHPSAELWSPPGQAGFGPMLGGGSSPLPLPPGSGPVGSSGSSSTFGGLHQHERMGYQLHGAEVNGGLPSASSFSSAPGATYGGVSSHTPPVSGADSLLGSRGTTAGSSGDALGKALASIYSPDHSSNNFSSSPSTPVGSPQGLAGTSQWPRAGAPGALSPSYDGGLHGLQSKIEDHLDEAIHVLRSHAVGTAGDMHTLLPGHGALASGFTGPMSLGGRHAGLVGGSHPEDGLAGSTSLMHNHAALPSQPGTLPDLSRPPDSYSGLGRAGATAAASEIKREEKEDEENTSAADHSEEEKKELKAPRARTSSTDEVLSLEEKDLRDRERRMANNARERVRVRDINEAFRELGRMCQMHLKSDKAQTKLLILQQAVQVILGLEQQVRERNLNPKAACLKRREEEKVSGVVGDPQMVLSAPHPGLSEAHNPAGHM
Briefly: EMSA; comparable affinity on all four probes. To be noted: tags: TNT reticulocyte lysate; chain copies: 2 inferred; label: 32P. As for the experimental part:
(§1) FIGS. 23A-23B are photographs of electromobility shift assays (EMSAs) showing that bHLH factors bind pancreatic promoter E boxes. EMSA were used to test the ability of E47, neurogenin3 and neuroD 1 to bind to labeled, double stranded oligonucleotides containing the E box sequences from the rat insulin I and mouse nkx2.2 promoters (23A) or the human PAX4 and NEUROG3 promoters (23B). 1 μl of each in vitro-translated protein was incubated with the indicated probes, either individually or in the combination shown. Results are typical of experiments done on three occasions.
(§2) Electromobility Shift Assays. Single stranded oligonucleotides were 5′-end labeled using (γ-32P) ATP and T4 polynucleotide kinase. An excess of complementary strand was then annealed to form a duplex strand that was column purified. EMSA buffers and electrophoresis conditions were as described above using 500 ng of poly(dIdC):poly(dIdC) per 10 ul binding mix. For in vitro produced protein, 1 μl of the 50 μl total reaction volume was used per binding mix.
(§3) Oligonucleotides used were as follows (coding strand shown from each double stranded pair): NEUROG3 promoter E element, 5′-[…]-3′; rat insulin I promoter E2 element, 5′-[…]-3′; PAX4 promoter E element, 5′-[…]-3′; nkx2.2 promoter E3 element 5′-[…]-3′. EMSA results are representative of those seen on at least 3 occasions.
For orientation: Mobility shift assays separate free from complexed probe on a gel.

Data set [1] deals with T2, E47/NeuroD1 heterodimer (UniProt P15923-2;Q60867 P15923-2:1-651,Q60867:1-357). The data set is described as follows: EMSA; third of four. To be noted: tags: TNT reticulocyte lysate; label: 32P. As for the experimental part: as §1, §2, §3
T2 sequence (Q60867 whole entry, one chain of several): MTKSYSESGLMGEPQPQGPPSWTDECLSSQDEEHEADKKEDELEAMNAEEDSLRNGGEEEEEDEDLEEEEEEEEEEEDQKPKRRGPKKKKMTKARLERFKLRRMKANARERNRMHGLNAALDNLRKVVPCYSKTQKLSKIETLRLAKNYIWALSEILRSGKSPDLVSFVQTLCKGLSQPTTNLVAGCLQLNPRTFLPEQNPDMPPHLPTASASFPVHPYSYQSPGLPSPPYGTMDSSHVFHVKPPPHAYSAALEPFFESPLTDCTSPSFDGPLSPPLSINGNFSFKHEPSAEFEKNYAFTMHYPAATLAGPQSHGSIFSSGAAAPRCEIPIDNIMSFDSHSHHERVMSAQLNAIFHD
A further data set deals with NeuroD1 (UniProt Q60867 Q60867:1-357). Briefly: EMSA; homodimer. To be noted: tags: TNT reticulocyte lysate; chain copies: 2 stated; label: 32P. The procedure:
as §1, §2, §3

Data set [2] deals with T2, E47/NeuroD1 heterodimer. Briefly: EMSA; strongest of four. As to conditions: tags: TNT reticulocyte lysate; label: 32P. The procedure:
as §1, §2, §3

Data set [3] addresses T2, E47/NeuroD1 heterodimer. Briefly: EMSA; second strongest of four. To be noted: tags: TNT reticulocyte lysate; label: 32P. As for the experimental part:
as §1, §2, §3

The target in data set [4] is T3, HNF3beta (FOXA2) (Rattus norvegicus, UniProt P32182 P32182:1-458).
T3 sequence: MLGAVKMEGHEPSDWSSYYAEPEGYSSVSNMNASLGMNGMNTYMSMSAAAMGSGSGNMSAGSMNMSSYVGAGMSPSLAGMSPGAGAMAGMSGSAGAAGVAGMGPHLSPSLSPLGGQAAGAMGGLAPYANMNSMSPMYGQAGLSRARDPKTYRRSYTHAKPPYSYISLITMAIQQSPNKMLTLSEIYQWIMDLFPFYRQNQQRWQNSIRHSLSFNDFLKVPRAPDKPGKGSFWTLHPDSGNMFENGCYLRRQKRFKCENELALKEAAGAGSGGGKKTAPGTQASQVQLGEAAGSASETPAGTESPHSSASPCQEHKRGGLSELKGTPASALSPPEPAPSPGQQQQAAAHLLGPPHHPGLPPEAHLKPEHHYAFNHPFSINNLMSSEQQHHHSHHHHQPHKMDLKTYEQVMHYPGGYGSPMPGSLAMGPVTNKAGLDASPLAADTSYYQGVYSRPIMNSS
Briefly: EMSA; high affinity; proximal and distal sites compete equally. To be noted: tags: pGEM-1 ratHNF3beta, TNT lysate; label: 32P. An excerpt:
(§4) Single-stranded oligonucleotides corresponding to the sequences in the human ngn3 promoter were 5′ end-labeled with [γ-³²P]-ATP using T4 polynucleotide kinase. The labeled oligonucleotides were column-purified and annealed to an excess of the complementary strand. For HNF3β and HNF 1α binding experiments, EMSA buffers and electrophoresis conditions were as previously described (Mirmira et al. J Biol Chem 275:14743-51, 2000). For HES-1 binding experiments, conditions were the same except that the poly(dI-dC) concentration was decreased to 15 ng/ul. One μl of the in vitro reaction mixture or 2 ug of nuclear extracts or 400 ng of GST-fused Hes1 protein were used for each binding reaction. When using antibodies, 1 μl of each antibody was incubated with the binding mix for 15 min at room temperature prior to gel-electrophoresis. The antisera against HNF-3α, -3β, and -3γ were a generous gift from R. Costa (University of Illinois) and the HES-1 antiserum was a generous gift from Y. Jan (University of California San Francisco). The anti-HNF-1α antiserum was purchased from Santa Cruz Biotechnology, Inc. […]

Data set [5] addresses T3, HNF3beta (FOXA2). Briefly: EMSA; high affinity. To be noted: tags: pGEM-1 ratHNF3beta, TNT lysate; label: 32P.
Description: as §4

Sequence of NeuroD1 (Q60867 whole entry, one chain of several): as the sequence (Q60867 whole entry, one chain of several) above

B1: nkx2.2 E3 (dsDNA)
DNA 1: TTATTACCGCTGAACATATGGCCAATATTTTGACT
DNA 2: AGTCAAAATATTGGCCATATGTTCAGCGGTAATAA
For B1, the binding result with E47, with E47/NeuroD1 heterodimer [1] and with NeuroD1 was “binds” throughout.

B2: NEUROG3 E box (dsDNA)
DNA 1: CTTTGTCCGGAATCCAGCTGTGCCCTGCGGGGGAG
DNA 2: CTCCCCCGCAGGGCACAGCTGGATTCCGGACAAAG
In the case of B2, the binding result with E47 is listed as “binds”.

B3: PAX4 E box (dsDNA)
DNA 1: TGTATAATTGTGAGCAGATGGCGGGGGCTGGCGGC
DNA 2: GCCGCCAGCCCCCGCCATCTGCTCACAATTATACA
As for B3, the binding result in the data set with E47/NeuroD1 heterodimer [2] and with E47 was “binds” each time.

B4: rat insulin I E2 (dsDNA)
DNA 1: CTGCTTCATCAGGCCATCTGGCCCCTTGTTAATAA
DNA 2: TTATTAACAAGGGGCCAGATGGCCTGATGAAGCAG
Take B4: the binding result in the data set with E47 and in the data set with E47/NeuroD1 heterodimer [3] was “binds” throughout.

B5: H3-2 (ngn3 promoter distal) (dsDNA)
DNA 1: TTATTATTATTTTAGCAAACACTGGAGACAG
DNA 2: CTGTCTCCAGTGTTTGCTAAAATAATAATAA
Consider B5, for which the binding result with HNF3beta (FOXA2) [4] is “binds”.

B6: H3-1 (ngn3 promoter proximal) (dsDNA)
DNA 1: GATCTCTCGAGAGAGCAAACAGCGCGGCGG
DNA 2: CCGCCGCGCTGTTTGCTCTCTCGAGAGATC
As for B6, the binding result with HNF3beta (FOXA2) [5] is reported as “binds”.
